Laboratory results as given in the Human Domainome abundance scans (Beltran et al. 2025).
± gives the uncertainty stated by the source.

B1: KAT8 regulatory NSL complex subunit 2, residues 28 to 91; numbered along this chain, Q9H9L4 (parent)
chain: CAFTHRPCSHPRLEGQEFCIKHILEDKNAPFKQCSYISTKNGKRCPNAAPKPEKKDGVSFCAEH

Variants of: B1
Assay: abundance fitness (aPCA) (normalised: wild type 0, dead -1); higher = more abundant; growth selection in yeast, the domain comes from the species named
Settings: Homo sapiens
CAFTHRPCSHPRLEGQEFCIKHILEDKNAPFKQCSYISTKNGKRCPNAAQKPEKKDGVSFCAEH [P50Q] gave an abundance fitness of -0.265 ± 0.2. In the case of CAFTHRPCSHPRLEGQEFCIKHILEDKNAPFKQCSYISTKNGKRCPNAARKPEKKDGVSFCAEH [P50R], the abundance fitness is reported as -0.106 ± 0.069. With CAFTHRPCSHPRLEGQEFCIKHILEDKNAPFKQCSYISTKNGKRCPNAASKPEKKDGVSFCAEH [P50S] the abundance fitness was -0.104 ± 0.054. CAFTHRPCSHPRLEGQEFCIKHILEDKNAPFKQCSYISTKNGKRCPNAAVKPEKKDGVSFCAEH [P50V] gave an abundance fitness of -0.204 ± 0.07. CAFTHRPCSHPRLEGQEFCIKHILEDKNAPFKQCSYISTKNGKRCPNAAWKPEKKDGVSFCAEH [P50W] gave an abundance fitness of -0.287 ± 0.098. In the case of CAFTHRPCSHPRLEGQEFCIKHILEDKNAPFKQCSYISTKNGKRCPNAAYKPEKKDGVSFCAEH [P50Y], the abundance fitness is reported as -0.249 ± 0.079. In the case of CAFTHRPCSHPRLEGQEFCIKHILEDKNAPFKQCSYISTKNGKRCPNAAPAPEKKDGVSFCAEH [K51A], the abundance fitness is reported as -0.03 ± 0.071. For CAFTHRPCSHPRLEGQEFCIKHILEDKNAPFKQCSYISTKNGKRCPNAAPCPEKKDGVSFCAEH [K51C], the abundance fitness was -0.072 ± 0.092. In the case of CAFTHRPCSHPRLEGQEFCIKHILEDKNAPFKQCSYISTKNGKRCPNAAPDPEKKDGVSFCAEH [K51D], the abundance fitness is reported as -0.05 ± 0.12. CAFTHRPCSHPRLEGQEFCIKHILEDKNAPFKQCSYISTKNGKRCPNAAPEPEKKDGVSFCAEH [K51E] gave an abundance fitness of -0.064 ± 0.13. With CAFTHRPCSHPRLEGQEFCIKHILEDKNAPFKQCSYISTKNGKRCPNAAPFPEKKDGVSFCAEH [K51F] the abundance fitness was -0.21 ± 0.068. CAFTHRPCSHPRLEGQEFCIKHILEDKNAPFKQCSYISTKNGKRCPNAAPGPEKKDGVSFCAEH [K51G] showed an abundance fitness of -0.033 ± 0.088. In the case of CAFTHRPCSHPRLEGQEFCIKHILEDKNAPFKQCSYISTKNGKRCPNAAPHPEKKDGVSFCAEH [K51H], the abundance fitness is reported as -0.166 ± 0.091. CAFTHRPCSHPRLEGQEFCIKHILEDKNAPFKQCSYISTKNGKRCPNAAPIPEKKDGVSFCAEH [K51I] showed an abundance fitness of -0.041 ± 0.088. Variant CAFTHRPCSHPRLEGQEFCIKHILEDKNAPFKQCSYISTKNGKRCPNAAPLPEKKDGVSFCAEH [K51L] has an abundance fitness of -0.101 ± 0.052. CAFTHRPCSHPRLEGQEFCIKHILEDKNAPFKQCSYISTKNGKRCPNAAPMPEKKDGVSFCAEH [K51M] showed an abundance fitness of -0.099 ± 0.11. With CAFTHRPCSHPRLEGQEFCIKHILEDKNAPFKQCSYISTKNGKRCPNAAPNPEKKDGVSFCAEH [K51N] the abundance fitness was -0.195 ± 0.12. Variant CAFTHRPCSHPRLEGQEFCIKHILEDKNAPFKQCSYISTKNGKRCPNAAPPPEKKDGVSFCAEH [K51P] has an abundance fitness of -0.109 ± 0.08. Variant CAFTHRPCSHPRLEGQEFCIKHILEDKNAPFKQCSYISTKNGKRCPNAAPQPEKKDGVSFCAEH [K51Q] has an abundance fitness of -0.217 ± 0.37. CAFTHRPCSHPRLEGQEFCIKHILEDKNAPFKQCSYISTKNGKRCPNAAPRPEKKDGVSFCAEH [K51R] gave an abundance fitness of -0.087 ± 0.075. CAFTHRPCSHPRLEGQEFCIKHILEDKNAPFKQCSYISTKNGKRCPNAAPSPEKKDGVSFCAEH [K51S] gave an abundance fitness of -0.105 ± 0.064. In the case of CAFTHRPCSHPRLEGQEFCIKHILEDKNAPFKQCSYISTKNGKRCPNAAPTPEKKDGVSFCAEH [K51T], the abundance fitness is reported as -0.112 ± 0.073. With CAFTHRPCSHPRLEGQEFCIKHILEDKNAPFKQCSYISTKNGKRCPNAAPVPEKKDGVSFCAEH [K51V] the abundance fitness was -0.035 ± 0.085. Variant CAFTHRPCSHPRLEGQEFCIKHILEDKNAPFKQCSYISTKNGKRCPNAAPYPEKKDGVSFCAEH [K51Y] has an abundance fitness of -0.327 ± 0.094. In the case of CAFTHRPCSHPRLEGQEFCIKHILEDKNAPFKQCSYISTKNGKRCPNAAPKAEKKDGVSFCAEH [P52A], the abundance fitness is reported as -0.072 ± 0.046. CAFTHRPCSHPRLEGQEFCIKHILEDKNAPFKQCSYISTKNGKRCPNAAPKCEKKDGVSFCAEH [P52C] gave an abundance fitness of -0.188 ± 0.086. Work on CAFTHRPCSHPRLEGQEFCIKHILEDKNAPFKQCSYISTKNGKRCPNAAPKDEKKDGVSFCAEH [P52D] yielded an abundance fitness of -0.077 ± 0.084. Work on CAFTHRPCSHPRLEGQEFCIKHILEDKNAPFKQCSYISTKNGKRCPNAAPKEEKKDGVSFCAEH [P52E] yielded an abundance fitness of -0.066 ± 0.058. In the case of CAFTHRPCSHPRLEGQEFCIKHILEDKNAPFKQCSYISTKNGKRCPNAAPKFEKKDGVSFCAEH [P52F], the abundance fitness is reported as -0.01 ± 0.12. CAFTHRPCSHPRLEGQEFCIKHILEDKNAPFKQCSYISTKNGKRCPNAAPKGEKKDGVSFCAEH [P52G] gave an abundance fitness of -0.068 ± 0.054. For CAFTHRPCSHPRLEGQEFCIKHILEDKNAPFKQCSYISTKNGKRCPNAAPKHEKKDGVSFCAEH [P52H], the abundance fitness was -0.133 ± 0.07. CAFTHRPCSHPRLEGQEFCIKHILEDKNAPFKQCSYISTKNGKRCPNAAPKIEKKDGVSFCAEH [P52I] gave an abundance fitness of -0.136 ± 0.14. CAFTHRPCSHPRLEGQEFCIKHILEDKNAPFKQCSYISTKNGKRCPNAAPKKEKKDGVSFCAEH [P52K] gave an abundance fitness of -0.136 ± 0.069. Variant CAFTHRPCSHPRLEGQEFCIKHILEDKNAPFKQCSYISTKNGKRCPNAAPKLEKKDGVSFCAEH [P52L] has an abundance fitness of -0.106 ± 0.046. For CAFTHRPCSHPRLEGQEFCIKHILEDKNAPFKQCSYISTKNGKRCPNAAPKMEKKDGVSFCAEH [P52M], the abundance fitness was -0.024 ± 0.07. CAFTHRPCSHPRLEGQEFCIKHILEDKNAPFKQCSYISTKNGKRCPNAAPKQEKKDGVSFCAEH [P52Q] showed an abundance fitness of -0.061 ± 0.078. CAFTHRPCSHPRLEGQEFCIKHILEDKNAPFKQCSYISTKNGKRCPNAAPKREKKDGVSFCAEH [P52R] showed an abundance fitness of -0.144 ± 0.049. CAFTHRPCSHPRLEGQEFCIKHILEDKNAPFKQCSYISTKNGKRCPNAAPKSEKKDGVSFCAEH [P52S] showed an abundance fitness of -0.082 ± 0.052. For CAFTHRPCSHPRLEGQEFCIKHILEDKNAPFKQCSYISTKNGKRCPNAAPKVEKKDGVSFCAEH [P52V], the abundance fitness was -0.083 ± 0.053. CAFTHRPCSHPRLEGQEFCIKHILEDKNAPFKQCSYISTKNGKRCPNAAPKWEKKDGVSFCAEH [P52W] showed an abundance fitness of -0.053 ± 0.063. With CAFTHRPCSHPRLEGQEFCIKHILEDKNAPFKQCSYISTKNGKRCPNAAPKYEKKDGVSFCAEH [P52Y] the abundance fitness was -0.29 ± 0.13. In the case of CAFTHRPCSHPRLEGQEFCIKHILEDKNAPFKQCSYISTKNGKRCPNAAPKPEKKAGVSFCAEH [D56A], the abundance fitness is reported as -0.111 ± 0.085.
